Source: US20250262210A1 (TRUSTEES OF COLUMBIA UNIVERSITY IN THE CITY OF NEW YORK, published 2025)

Legend:
Experiment in all cases: IP/MS, LZTR1 R810W-FLAG, U87
HERC2 = HERC2 (human, UniProt O95714 1-4834)
Procedure, shortened: (§1)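 Gel slices were reduced with 5 mM DTT, alkylated with 11 mM IAA and digested overnight at 37° C. with trypsin. Peptides were analysed on an Orbitrap Fusion Tribrid by LC-MS/MS.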

SPG11 = SPG11 (human, UniProt Q96JI7 1-2443, limits assumed)
Procedure, shortened: as §1

KDM5C = KDM5C (human, UniProt P41229 1-1560, limits assumed)
Procedure, shortened: as §1

HECTD3 = target: T1, HECTD3 (human, UniProt Q5T447 2-861, limits assumed)
T1 sequence (looked up): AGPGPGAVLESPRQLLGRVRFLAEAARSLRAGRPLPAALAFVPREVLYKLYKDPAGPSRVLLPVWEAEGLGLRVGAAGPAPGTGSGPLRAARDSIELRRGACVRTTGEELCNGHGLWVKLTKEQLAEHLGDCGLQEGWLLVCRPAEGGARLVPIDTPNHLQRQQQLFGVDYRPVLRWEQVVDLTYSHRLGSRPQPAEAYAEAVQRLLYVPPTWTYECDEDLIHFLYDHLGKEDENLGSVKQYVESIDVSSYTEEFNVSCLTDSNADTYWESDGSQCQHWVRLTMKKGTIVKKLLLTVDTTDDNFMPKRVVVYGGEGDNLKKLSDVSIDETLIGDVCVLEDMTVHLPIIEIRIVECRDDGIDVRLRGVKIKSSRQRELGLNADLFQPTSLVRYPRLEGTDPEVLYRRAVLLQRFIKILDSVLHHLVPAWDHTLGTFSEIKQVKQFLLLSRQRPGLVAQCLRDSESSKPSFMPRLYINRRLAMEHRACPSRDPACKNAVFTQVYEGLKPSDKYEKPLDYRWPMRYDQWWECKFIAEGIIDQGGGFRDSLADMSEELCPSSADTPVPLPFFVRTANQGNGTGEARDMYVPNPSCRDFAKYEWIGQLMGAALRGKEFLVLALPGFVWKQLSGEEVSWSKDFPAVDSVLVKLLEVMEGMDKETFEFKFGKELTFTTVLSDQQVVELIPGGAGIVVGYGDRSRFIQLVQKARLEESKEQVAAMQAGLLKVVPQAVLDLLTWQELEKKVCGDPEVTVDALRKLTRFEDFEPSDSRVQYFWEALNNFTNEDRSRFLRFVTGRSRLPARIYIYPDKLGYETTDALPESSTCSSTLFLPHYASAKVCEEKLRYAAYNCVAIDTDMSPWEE
Procedure, shortened: as §1

PEAK1 = PEAK1 (human, UniProt Q9H792 1-1746)
Procedure, shortened: as §1

TRAPPC11 = target: T2, TRAPPC11 (human, UniProt Q7Z392 1-1133, limits assumed)
T2 sequence (looked up): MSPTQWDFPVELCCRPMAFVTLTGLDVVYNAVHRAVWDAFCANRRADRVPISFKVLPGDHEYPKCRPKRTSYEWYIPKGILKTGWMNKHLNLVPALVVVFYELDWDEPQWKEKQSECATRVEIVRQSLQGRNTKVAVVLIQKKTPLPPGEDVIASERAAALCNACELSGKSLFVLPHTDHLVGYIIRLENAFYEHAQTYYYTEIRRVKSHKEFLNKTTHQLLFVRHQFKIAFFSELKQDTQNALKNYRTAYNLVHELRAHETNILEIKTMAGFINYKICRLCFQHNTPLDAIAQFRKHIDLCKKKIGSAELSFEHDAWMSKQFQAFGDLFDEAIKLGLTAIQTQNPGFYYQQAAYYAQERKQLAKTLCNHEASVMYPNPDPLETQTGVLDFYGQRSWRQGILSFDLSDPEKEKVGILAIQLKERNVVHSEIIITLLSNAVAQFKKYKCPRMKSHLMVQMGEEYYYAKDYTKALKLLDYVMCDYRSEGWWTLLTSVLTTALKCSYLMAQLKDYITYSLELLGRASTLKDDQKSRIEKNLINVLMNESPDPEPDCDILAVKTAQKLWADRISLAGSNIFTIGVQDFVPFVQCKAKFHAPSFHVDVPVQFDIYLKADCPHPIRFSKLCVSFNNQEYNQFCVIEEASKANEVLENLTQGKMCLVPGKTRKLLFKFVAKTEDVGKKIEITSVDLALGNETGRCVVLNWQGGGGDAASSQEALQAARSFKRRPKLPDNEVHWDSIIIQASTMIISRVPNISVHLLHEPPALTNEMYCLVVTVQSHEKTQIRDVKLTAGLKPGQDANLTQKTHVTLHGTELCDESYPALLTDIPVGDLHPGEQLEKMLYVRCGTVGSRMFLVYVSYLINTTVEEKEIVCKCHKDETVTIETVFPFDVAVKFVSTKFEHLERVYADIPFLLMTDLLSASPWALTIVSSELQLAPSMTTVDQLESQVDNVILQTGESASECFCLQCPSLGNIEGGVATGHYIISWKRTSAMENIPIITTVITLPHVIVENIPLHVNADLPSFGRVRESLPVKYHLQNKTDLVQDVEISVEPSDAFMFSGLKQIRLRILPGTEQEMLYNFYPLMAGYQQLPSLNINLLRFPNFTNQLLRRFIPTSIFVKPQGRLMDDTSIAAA
Procedure, shortened: as §1

Measured: binding result

Sequence of PEAK1 (Q9H792 whole entry): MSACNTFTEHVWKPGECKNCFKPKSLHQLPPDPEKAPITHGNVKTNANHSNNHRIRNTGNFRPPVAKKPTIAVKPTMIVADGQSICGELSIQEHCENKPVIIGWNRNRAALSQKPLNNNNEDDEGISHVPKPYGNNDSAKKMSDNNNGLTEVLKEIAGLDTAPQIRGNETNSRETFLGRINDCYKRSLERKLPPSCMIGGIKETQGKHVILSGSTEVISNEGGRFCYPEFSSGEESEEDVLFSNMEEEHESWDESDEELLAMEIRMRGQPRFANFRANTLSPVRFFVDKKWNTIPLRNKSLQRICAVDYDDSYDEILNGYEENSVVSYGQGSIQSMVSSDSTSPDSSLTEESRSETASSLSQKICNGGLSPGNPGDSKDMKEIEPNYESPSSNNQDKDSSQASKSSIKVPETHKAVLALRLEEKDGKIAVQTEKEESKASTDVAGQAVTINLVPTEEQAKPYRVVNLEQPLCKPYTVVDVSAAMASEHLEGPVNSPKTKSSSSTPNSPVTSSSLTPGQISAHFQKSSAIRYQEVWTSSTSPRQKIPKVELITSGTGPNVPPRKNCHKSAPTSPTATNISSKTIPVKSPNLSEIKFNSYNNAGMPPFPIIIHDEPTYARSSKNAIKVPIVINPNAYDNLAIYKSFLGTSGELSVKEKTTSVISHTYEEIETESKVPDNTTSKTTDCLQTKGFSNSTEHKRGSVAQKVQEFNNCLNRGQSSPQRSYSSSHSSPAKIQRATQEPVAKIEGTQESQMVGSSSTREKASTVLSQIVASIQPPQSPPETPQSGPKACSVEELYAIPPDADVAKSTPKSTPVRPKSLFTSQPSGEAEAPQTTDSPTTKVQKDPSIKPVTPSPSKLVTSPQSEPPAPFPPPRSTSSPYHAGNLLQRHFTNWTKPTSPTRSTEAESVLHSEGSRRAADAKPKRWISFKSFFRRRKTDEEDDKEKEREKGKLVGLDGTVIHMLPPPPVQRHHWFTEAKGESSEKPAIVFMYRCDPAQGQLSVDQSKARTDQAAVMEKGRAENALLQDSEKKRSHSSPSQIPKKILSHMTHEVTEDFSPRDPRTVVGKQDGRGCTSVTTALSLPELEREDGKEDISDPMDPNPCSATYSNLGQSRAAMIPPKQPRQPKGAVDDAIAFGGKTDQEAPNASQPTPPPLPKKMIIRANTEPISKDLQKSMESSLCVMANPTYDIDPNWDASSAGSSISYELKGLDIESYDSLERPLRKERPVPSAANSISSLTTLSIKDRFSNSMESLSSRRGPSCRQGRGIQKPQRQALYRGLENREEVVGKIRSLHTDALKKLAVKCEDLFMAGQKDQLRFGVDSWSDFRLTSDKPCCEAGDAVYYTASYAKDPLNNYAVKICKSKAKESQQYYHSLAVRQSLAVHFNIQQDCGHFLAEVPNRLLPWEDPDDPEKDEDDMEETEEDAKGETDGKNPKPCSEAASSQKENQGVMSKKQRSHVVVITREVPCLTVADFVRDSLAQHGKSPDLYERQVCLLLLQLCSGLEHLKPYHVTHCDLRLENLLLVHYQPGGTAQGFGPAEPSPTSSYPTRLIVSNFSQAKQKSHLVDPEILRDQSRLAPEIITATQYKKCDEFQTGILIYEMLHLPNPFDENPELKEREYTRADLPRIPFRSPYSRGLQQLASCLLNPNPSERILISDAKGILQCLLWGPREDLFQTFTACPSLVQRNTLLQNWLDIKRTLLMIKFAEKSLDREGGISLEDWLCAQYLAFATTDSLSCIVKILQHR
Sequence of KDM5C (P41229 whole entry): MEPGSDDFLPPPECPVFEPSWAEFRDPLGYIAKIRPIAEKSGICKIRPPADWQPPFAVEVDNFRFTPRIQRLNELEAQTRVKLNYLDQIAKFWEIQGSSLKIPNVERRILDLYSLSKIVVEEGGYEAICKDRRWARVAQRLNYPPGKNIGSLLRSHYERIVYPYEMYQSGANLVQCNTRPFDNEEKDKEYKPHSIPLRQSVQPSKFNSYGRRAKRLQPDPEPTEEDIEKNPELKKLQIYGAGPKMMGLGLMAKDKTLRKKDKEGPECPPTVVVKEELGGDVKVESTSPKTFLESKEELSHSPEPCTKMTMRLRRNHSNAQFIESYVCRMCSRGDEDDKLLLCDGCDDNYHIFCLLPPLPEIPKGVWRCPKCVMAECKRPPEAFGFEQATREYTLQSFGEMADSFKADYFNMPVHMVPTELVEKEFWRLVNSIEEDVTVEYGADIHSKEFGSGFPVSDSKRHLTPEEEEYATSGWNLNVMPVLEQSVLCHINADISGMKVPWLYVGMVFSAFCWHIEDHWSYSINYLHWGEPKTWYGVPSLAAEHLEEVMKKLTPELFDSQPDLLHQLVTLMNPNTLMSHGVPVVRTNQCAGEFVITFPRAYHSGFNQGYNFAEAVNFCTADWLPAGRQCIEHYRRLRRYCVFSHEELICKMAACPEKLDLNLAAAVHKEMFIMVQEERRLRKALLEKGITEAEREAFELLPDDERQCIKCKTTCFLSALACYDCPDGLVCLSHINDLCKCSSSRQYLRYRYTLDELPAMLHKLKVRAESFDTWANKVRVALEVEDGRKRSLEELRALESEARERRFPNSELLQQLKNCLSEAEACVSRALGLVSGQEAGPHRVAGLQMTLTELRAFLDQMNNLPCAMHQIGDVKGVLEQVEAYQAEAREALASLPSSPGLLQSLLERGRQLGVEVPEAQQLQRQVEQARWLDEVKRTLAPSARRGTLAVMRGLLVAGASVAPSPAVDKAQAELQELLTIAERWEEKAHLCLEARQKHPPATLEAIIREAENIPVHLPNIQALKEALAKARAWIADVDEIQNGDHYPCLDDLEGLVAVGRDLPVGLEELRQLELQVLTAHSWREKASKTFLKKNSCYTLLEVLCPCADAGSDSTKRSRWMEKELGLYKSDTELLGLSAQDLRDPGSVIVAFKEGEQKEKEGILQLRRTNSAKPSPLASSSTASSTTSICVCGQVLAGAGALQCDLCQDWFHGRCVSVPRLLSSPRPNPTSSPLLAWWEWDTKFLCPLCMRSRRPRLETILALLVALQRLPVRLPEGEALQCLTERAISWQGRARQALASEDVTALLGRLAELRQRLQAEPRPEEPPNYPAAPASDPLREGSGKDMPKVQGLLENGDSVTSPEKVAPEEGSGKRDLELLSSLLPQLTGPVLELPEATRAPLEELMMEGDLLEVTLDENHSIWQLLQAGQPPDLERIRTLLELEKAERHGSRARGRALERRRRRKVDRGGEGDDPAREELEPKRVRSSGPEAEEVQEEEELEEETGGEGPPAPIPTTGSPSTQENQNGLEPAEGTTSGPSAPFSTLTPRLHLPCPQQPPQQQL

B1: LZTR1 R810W-FLAG (other, human, UniProt Q8N653 1-840, looked up)
chain: MAGPGSTGGQIGAAALAGGARSKVAPSVDFDHSCSDSVEYLTLNFGPFETVHRWRRLPPCDEFVGARRSKHTVVAYKDAIYVFGGDNGKTMLNDLLRFDVKDCSWCRAFTTGTPPAPRYHHSAVVYGSSMFVFGGYTGDIYSNSNLKNKNDLFEYKFATGQWTEWKIEGRLPVARSAHGATVYSDKLWIFAGYDGNARLNDMWTIGLQDRELTCWEEVAQSGEIPPSCCNFPVAVCRDKMFVFSGQSGAKITNNLFQFEFKDKTWTRIPTEHLLRGSPPPPQRRYGHTMVAFDRHLYVFGGAADNTLPNELHCYDVDFQTWEVVQPSSDSEVGGAEVPERACASEEVPTLTYEERVGFKKSRDVFGLDFGTTSAKQPTQPASELPSGRLFHAAAVISDAMYIFGGTVDNNIRSGEMYRFQFSCYPKCTLHEDYGRLWESRQFCDVEFVLGEKEECVQGHVAIVTARSRWLRRKITQARERLAQKLEQEAAPVPREAPGVAAGGARPPLLHVAIREAEARPFEVLMQFLYTDKIKYPRKGHVEDVLLIMDVYKLALSFQLCRLEQLCRQYIEASVDLQNVLVVCESAARLQLSQLKEHCLNFVVKESHFNQVIMMKEFERLSSPLIVEIVRRKQQPPPRTPLDQPVDIGTSLIQDMKAYLEGAGAEFCDITLLLDGHPRPAHKAILAARSSYFEAMFRSFMPEDGQVNISIGEMVPSRQAFESMLRYIYYGEVNMPPEDSLYLFAAPYYYGFYNNRLQAYCKQNLEMNVTVQNVLQILEAADKTQALDMKRHCLHIIVHQFTKVSKLPTLWSLSQQLLLDIIDSLASHISDKQCAELGADI
notes: Stably expressed in U87 cells by lentivirus; also called LZTR1-FLAG-R810W; LZTR1 RW; not shown: FLAG tag
binds: all assays above
